Series [1] concerns the target T1, Alba1 (Sso10b) (Sulfolobus solfataricus, UniProt P60849 1-97).
T1 sequence: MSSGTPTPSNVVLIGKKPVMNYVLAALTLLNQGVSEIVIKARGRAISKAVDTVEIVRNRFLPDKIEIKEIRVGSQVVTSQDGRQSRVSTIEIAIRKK
Description: EMSA. Background: In EMSA bound probe runs differently from free probe, usually more slowly.

Series [2] addresses T1, Alba1 (Sso10b). Description: EMSA. The source holds these as a separate data set.
Series [3] has as its target T2, Alba1 F60A (Sulfolobus solfataricus, UniProt P60849 1-97, F60A).
T2 sequence: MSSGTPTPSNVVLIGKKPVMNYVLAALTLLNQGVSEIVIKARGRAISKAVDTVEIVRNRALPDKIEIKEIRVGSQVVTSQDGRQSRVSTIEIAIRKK
Description: EMSA.

Series [4] has as its target T1, Alba1 (Sso10b). Description: EMSA. This is another data set of the same source.
Series [5] deals with the molecule itself. Description: pulsed ESR.
The target in series [6] is T2, Alba1 F60A. Description: EMSA. The source holds these as a separate data set.
Series [7] has as its target T1, Alba1 (Sso10b). Description: EMSA. This is another data set of the same source.

Like-named read-outs stand apart in the source and are kept apart here.

For orientation: Kd means the constant that tells how readily two partners part at equilibrium. The molecule CCCGGCGUGCGGCCCG (ssRNA) [16 mer ssRNA] registered a Kd in series [1] of 920 ± 69 nM.
Consider UUUUUUUUUUUUUUUUUUUUUUUUUUUUUU (ssRNA) [30U], for which the affinity in series [2], expressed as Kd, was 900 ± 38 nM.

B1: 39 bp duplex (dsDNA)
DNA 1: CCTCGGTGCTAAGTTGATGCTGGTACTCGGAGTATCCCG
DNA 2: CGGGATACTCCGAGTACCAGCATCAACTTAGCACCGAGG
With B1, binding in series [3] was put at a Kd of 520 ± 13 nM.
The molecule CCTCGGTGCTAAGTTGATGCTGGTACTCGGAGTATCCCG (ssDNA) [39 mer ssDNA] returned a Kd in series [4] of 270 ± 13 nM.

B2: spin-labelled Alba R59C (S. solfataricus Alba1 R59C modified with MTSSL) (natural protein, Sulfolobus solfataricus, UniProt P60849 1-97, looked up)
chain: MSSGTPTPSNVVLIGKKPVMNYVLAALTLLNQGVSEIVIKARGRAISKAVDTVEIVRNCFLPDKIEIKEIRVGSQVVTSQDGRQSRVSTIEIAIRKK
modifications: methanethiosulfonate spin label MTSSL on the cysteine at position 59
Consider B2, for which the binding result in series [5] is given as “binds”.

B3: 16 bp duplex (dsDNA)
DNA 1: CCCGGCGTGCGGCCCG
DNA 2: CGGGCCGCACGCCGGG
In turn, B3 registered a dissociation constant Kd in series [6] of 710 ± 20 nM.
As to AAAAAAAAAAAAAAAAAAAAAAAAAAAA (ssRNA) [28A], in series [7], the Kd was found to be 960 ± 30 nM.

For the origin of these results see publication PMC2841500 (Biochemical Journal, 2010).
